Positions count from the first letter of the chain named.
T1: cynomolgus ENTPD2, full length, on cells (cynomolgus macaque, UniProt Q9Y5L3 1-495 (human entry))
T1 chain: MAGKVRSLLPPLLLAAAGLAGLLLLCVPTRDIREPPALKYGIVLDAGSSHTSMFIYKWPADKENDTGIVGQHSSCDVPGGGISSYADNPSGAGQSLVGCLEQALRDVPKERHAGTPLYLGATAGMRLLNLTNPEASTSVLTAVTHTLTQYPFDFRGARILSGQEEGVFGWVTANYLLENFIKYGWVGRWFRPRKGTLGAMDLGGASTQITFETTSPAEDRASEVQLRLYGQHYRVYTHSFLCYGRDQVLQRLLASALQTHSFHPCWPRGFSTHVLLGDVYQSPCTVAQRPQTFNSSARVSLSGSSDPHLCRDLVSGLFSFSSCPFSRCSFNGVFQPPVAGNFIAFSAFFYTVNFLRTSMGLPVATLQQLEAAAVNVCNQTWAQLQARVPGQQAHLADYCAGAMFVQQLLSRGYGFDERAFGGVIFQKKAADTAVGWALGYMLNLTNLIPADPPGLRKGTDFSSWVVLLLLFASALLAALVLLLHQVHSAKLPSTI

T2: human ENTPD2, full length, on cells (human, UniProt Q9Y5L3 1-495)
T2 sequence: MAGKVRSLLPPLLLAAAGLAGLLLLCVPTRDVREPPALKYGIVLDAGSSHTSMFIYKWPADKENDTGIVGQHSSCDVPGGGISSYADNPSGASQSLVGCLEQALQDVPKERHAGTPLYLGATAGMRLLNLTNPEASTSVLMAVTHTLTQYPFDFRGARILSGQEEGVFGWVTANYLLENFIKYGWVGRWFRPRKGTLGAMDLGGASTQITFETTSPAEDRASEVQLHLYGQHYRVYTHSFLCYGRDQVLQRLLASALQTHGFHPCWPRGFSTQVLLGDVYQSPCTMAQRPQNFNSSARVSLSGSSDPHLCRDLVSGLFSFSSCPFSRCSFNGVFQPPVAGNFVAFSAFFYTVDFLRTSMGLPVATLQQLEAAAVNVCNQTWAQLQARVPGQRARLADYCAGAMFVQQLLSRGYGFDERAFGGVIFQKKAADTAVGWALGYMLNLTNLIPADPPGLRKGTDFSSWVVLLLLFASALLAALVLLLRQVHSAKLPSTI

B1: ANTI-HUMAN ENTPD2 MAB19 (antibody, human IgG1, kappa, V domains shown)
VH: EVQLQQFGAELVKPGTSVKISCKASGYTFTDYNMDWVKQSHGKSLEWIGDINPNYDITTYNQRFKGKATLTVDKSSSTAYMELRSLTSEDTAVYYCARRGFFPYYGNSYYYFDVWGAGTTVTVSS
VL: QIVLTQSPTIMSASLGEEITLTCSASSSVSYMHWYQQKSGTSPKLLIYSTSNLASGVPSRFSGSGSGTFYSLTISSVEAEDAADYYCHQWSNYPWTFGGGTKLEIKR
B2: ANTI-HUMAN ENTPD2 MAB20 (antibody, human IgG1, kappa, V domains shown)
VH: B1 VH with T16A, T59S, R63K, P103L, N107S
VL: B1 VL with T9A, N92S
B3: ANTI-HUMAN ENTPD2 MAB21 (antibody, human IgG1, kappa, V domains shown)
VH: EVQLQQSGPELVKPGASVKISCKTSGYTFTEYTMHWVKQSHGKSLEWIGGINPNNGITTYNQKFKGKATLTVDKSSSTAYMDLRSLTSEGSAVYYCARRGFPIYYYGTSLYYFDYWGQGTTLTVSS
VL: B1 VL with T9A, K38R, S49T, N92S
B4: ANTI-HUMAN ENTPD2 MAB9 (antibody, human IgG1, lambda, V domains shown)
VH: QVQLVQSGAEVKKPGSSVKVSCKASGGTFDSYAVSWVRQAPGQGLEWMGRIVPWLGHTQYAQKFQGRVTITADESTSTAYMELSSLRSEDTAVYYCARESPGYRYSFDVWDQGTLVTVSS
VL: SYELTQPLSVSVALGQTARITCSGDAIGEKYVYWYQQKPGQAPVLVIYDDNNRPSGIPERFSGSNSGNTATLTISRAQAGDEADYYCASYDLQQARWVFGGGTKLTVLG
B5: ANTI-HUMAN ENTPD2 MAB10 (antibody, human IgG1, lambda, V domains shown)
VH: B4 VH with H57F, Q59R
VL: B4 VL
B6: ANTI-HUMAN ENTPD2 MAB2 (antibody, human IgG1, kappa)
heavy: not shown
light: EIVLTQSPATLSASPGERITLSCSASSSVSYIHWYQQKPGQAPRLLIYSTSNLASGIPARFSGSGSGTFYTLTISSVEPEDAAVYYCHQWSSYPWTFGGGTKLEIKRTVAAPSVFIFPPSDEQLKSGTASVVCLLNNFYPREAKVQWKVDNALQSGNSQESVTEQDSKDSTYSLSSTLTLSKADYEKHKVYACEVTHQGLSSPVTKSFNRGEC
B7: ANTI-HUMAN ENTPD2 MAB7 (antibody, human IgG1, kappa)
heavy: not shown
light: B6 light with R18E
B8: ANTI-HUMAN ENTPD2 MAB3 (antibody, human IgG1, kappa, V domains shown)
VH: QVQLVQSGAEVVKPGASVKISCKASGYTFTDYNMDWVKQAPGQRLEWIGDINPKYDISTYNQQFKGKATITVDTSASTAYMELSSLRSEDTAVYYCARRGFFLYYGINYYYFDVWGQGTLVTVSS
VL: EIVLTQSPATLSASPGERITLSCSASSSVSYIHWYQQKPGQAPRLLIYSTSNLASGIPARFSGSGSGTFYTLTISSVEPEDAAVYYCHQWSSYPWTFGGGTKLEIKR
B9: ANTI-HUMAN ENTPD2 MAB8 (antibody, human IgG1, lambda, V domains shown)
VH: QVQLQQSGPGLVKPSQTLSLTCAISGDSVSSSSAAWNWIRQSPSRGLEWLGRIYYRSKWYNDYAVSVKSRITINPDTSKNQFSLQLNSVTPEDTAVYYCARGSYVTSSYEGFDYWGQGTLVTVSS
VL: SYELTQPLSVSVALGQTARITCSGDNLPEKYAYWYQQKPGQAPVLVIYDDNKRPSGIPERFSGSNSGNTATLTISRAQAGDEADYYCQSYGKWGWTWVFGGGTKLTVLG
B10: ANTI-HUMAN ENTPD2 MAB18 (antibody, human IgG1, kappa, V domains shown)
VH: DIQLQESGPGLVKPSQSLSLTCSVTGYSITSGYYWNWIRQFPGNKLEWMGYISYDGDNNYNPSLKNRISITRDTSKNQFFLKLSSVTTEDTATYYCAGGYYRYGLGSYSGSYYYVMDYWGQGTSVTVSS
VL: DTVLTQSPASLAVSLGQRATISCKASQSVDYDGNSYMNWYQQKPGQPPKLLIYAASNLESGIPARFSGSGSGTDFTLNIHPVEEEDAATYYCQQSNEDPPTFGGGTKLEIKR
B11: ANTI-HUMAN ENTPD2 MAB4 (antibody, human IgG1, kappa, V domains shown)
VH: QIQLQESGPGLVKPSQTLSLTCTVSGYSITSGYYWNWIRQHPGKGLEWIGYISYDADNNYNPSLKNRVTISRDTSKNQFSLKLSSVTAADTAVYYCAGGYYRYGLGSYRGSYYYVMDYWGQGTTVTVSS
VL: ETVLTQSPATLSVSPGERATISCKASQSVDYEGHSYMNWYQQKPGQAPRLLIYAASNLESGIPARFSGSGSGTDFTLTISSVEPEDAATYYCQQSNEDPPTFGGGTKLEIKR
B12: ANTI-HUMAN ENTPD2 MAB6 (antibody, human IgG1, kappa, V domains shown)
VH: B11 VH with I2V, I49M, V68I, R109S
VL: DTQMTQSPSSLSVSVGDRATITCKASQSVDYEGHSYMNWYQQKPGKAPKLLIYAASNLESGVPSRFSGSGSGTDFTLTISSVQPEDFATYYCQQSNEDPPTFGGGTKLEIKR
B13: ANTI-HUMAN ENTPD2 MAB5 (antibody, human IgG1, kappa, V domains shown)
VH: B11 VH
VL: B11 VL with E32D, H34N
B14: ANTI-HUMAN ENTPD2 MAB11 (antibody, human IgG1, kappa, V domains shown)
VH: EVQLLESGGGLVQSGGSLRLSCAASGFTFSSYAMSWVRQAPGKGLEWVSVISGSGGSTYYADSVKGRFTISRDNSKNTLYLQMNSLRAEDTAVYYCARGDDYGDDYYYYGMDVWGQGTTVTVSS
VL: not shown
B15: ANTI-HUMAN ENTPD2 MAB12 (antibody, human IgG1, kappa, V domains shown)
VH: EVLLVESGGGLVQPGGSLRLSCAASGFTFNSCSMNWVRQAPGKGLEWVSYISSSSSTIYYADSVKGRFTISRDNAKNSLYLQMNSLKDEDTAVYYCARDQGNWNYDDYYNGLDVWGQGTTVTVSS
VL: not shown

target: recombinant human ENTPD2 extracellular domain (residues 29-462) with C-terminal Avi-His6 tag (human, UniProt Q9Y5L3 29-462); test: cell-based or functional assay

Binder	ENTPD2 Biochemical Assay at 1 uM ATP IC50 [nM]
B1	4.09
B2	17.5
B3	0.87

Target: T1, cynomolgus ENTPD2, full length, on cells
Test: cell-based or functional assay

Binder	Cyno ENTPD2 NIH/3T3 Assay % inhibition [%]	Cyno ENTPD2 NIH/3T3 Assay IC50 [nM]
B4	71	0.3
B5	86	0.5
B6	84	2.7
B7	82	2.7
B8	84	5.8
B9	96	0.9
B10	68	20
B11	75	2.2
B12	73	3.3
B13	80	1.5

target: T2, human ENTPD2, full length, on cells; test: cell-based or functional assay

Binder	Human ENTPD2 NIH/3T3 Assay % inhibition [%]	Human ENTPD2 NIH/3T3 Assay IC50 [nM]	RKO Assay % inhibition [%]	RKO Assay IC50 [nM]
B4	92	0.3	70	0.1
B5	88	0.4	77	0.2
B14	55	1.5		
B6	98	1.4	86	0.8
B7	95	0.8	92	0.6
B8	91	1.8	95	1.6
B9	97	0.1	95	0.2
B10	88	0.4		
B15	68	26.6		
B11	87	0.2	74	0.2
B12	95	0.3	90	0.2
B13	95	0.3	80	0.2

Source: patent US20240336701A1 (Novartis, published 2024)
